This is an account of results in the Human Domainome abundance scans (Beltran et al. 2025).

± gives the uncertainty stated by the source.

The chains are these.
B1: DnaJ homolog subfamily C member 5, residues 16 to 77; numbered along this chain, Q9H3Z4 (parent)
chain: LYHVLGLDKNATSDDIKKSYRKLALKYHPDKNPDNPEAADKFKEINNAHAILTDATKRNIYD

In this series the parent is B1. Briefly: abundance fitness (aPCA) (normalised: wild type 0, dead -1); higher = more abundant; growth selection in yeast, the domain comes from the species named. The following applies: Homo sapiens.
Take LYHVLGLDKNATSDDIKFSYRKLALKYHPDKNPDNPEAADKFKEINNAHAILTDATKRNIYD: the abundance fitness stood at 0.117 ± 0.21.

With LYHVLGLDKNATSDDIKRSYRKLALKYHPDKNPDNPEAADKFKEINNAHAILTDATKRNIYD, the abundance fitness is -0.13 ± 0.062.

LYHVLGLDKNATSDDIKMSYRKLALKYHPDKNPDNPEAADKFKEINNAHAILTDATKRNIYD: the abundance fitness amounted to 0.06 ± 0.09.

Turning to LYHVLGLDKNATSDDIKQSYRKLALKYHPDKNPDNPEAADKFKEINNAHAILTDATKRNIYD, the abundance fitness was -0.104 ± 0.11.

Take LYHVLGLDKNATSDDIKSSYRKLALKYHPDKNPDNPEAADKFKEINNAHAILTDATKRNIYD: the abundance fitness was 0.04 ± 0.07.

With LYHVLGLDKNATSDDIKNSYRKLALKYHPDKNPDNPEAADKFKEINNAHAILTDATKRNIYD, the abundance fitness was -0.34 ± 0.18.

With LYHVLGLDKNATSDDIKWSYRKLALKYHPDKNPDNPEAADKFKEINNAHAILTDATKRNIYD, the abundance fitness is -0.226 ± 0.091.

Turning to LYHVLGLDKNATSDDIKLSYRKLALKYHPDKNPDNPEAADKFKEINNAHAILTDATKRNIYD, the abundance fitness was -0.157 ± 0.067.

For the variant LYHVLGLDKNATSDDIKTSYRKLALKYHPDKNPDNPEAADKFKEINNAHAILTDATKRNIYD, the abundance fitness is -0.025 ± 0.1.

As for LYHVLGLDKNATSDDIKESYRKLALKYHPDKNPDNPEAADKFKEINNAHAILTDATKRNIYD, the abundance fitness turned out to be 0.11 ± 0.086.

As to LYHVLGLDKNATSDDIKCSYRKLALKYHPDKNPDNPEAADKFKEINNAHAILTDATKRNIYD, the abundance fitness is -0.101 ± 0.1.

In the case of LYHVLGLDKNATSDDIKPSYRKLALKYHPDKNPDNPEAADKFKEINNAHAILTDATKRNIYD, the abundance fitness was -0.623 ± 0.086.

Consider LYHVLGLDKNATSDDIKASYRKLALKYHPDKNPDNPEAADKFKEINNAHAILTDATKRNIYD, for which the abundance fitness came out at 0.079 ± 0.1.

As for LYHVLGLDKNATSDDIKISYRKLALKYHPDKNPDNPEAADKFKEINNAHAILTDATKRNIYD, the abundance fitness was -0.005 ± 0.13.

As to LYHVLGLDKNATSDDQKKSYRKLALKYHPDKNPDNPEAADKFKEINNAHAILTDATKRNIYD, the abundance fitness was -0.437 ± 0.1.

On to LYHVLGLDKNATSDDFKKSYRKLALKYHPDKNPDNPEAADKFKEINNAHAILTDATKRNIYD, for which the abundance fitness is -0.064 ± 0.18.

For the variant LYHVLGLDKNATSDDGKKSYRKLALKYHPDKNPDNPEAADKFKEINNAHAILTDATKRNIYD, the abundance fitness is -0.442 ± 0.073.

With LYHVLGLDKNATSDDMKKSYRKLALKYHPDKNPDNPEAADKFKEINNAHAILTDATKRNIYD, the abundance fitness was -0.65 ± 0.091.

Turning to LYHVLGLDKNATSDDYKKSYRKLALKYHPDKNPDNPEAADKFKEINNAHAILTDATKRNIYD, the abundance fitness was -0.649 ± 0.14.

Regarding LYHVLGLDKNATSDDHKKSYRKLALKYHPDKNPDNPEAADKFKEINNAHAILTDATKRNIYD, the abundance fitness is -0.723 ± 0.13.

Regarding LYHVLGLDKNATSDDNKKSYRKLALKYHPDKNPDNPEAADKFKEINNAHAILTDATKRNIYD, the abundance fitness was -0.615 ± 0.18.

On to LYHVLGLDKNATSDDEKKSYRKLALKYHPDKNPDNPEAADKFKEINNAHAILTDATKRNIYD, for which the abundance fitness was -0.305 ± 0.11.

For the variant LYHVLGLDKNATSDDDKKSYRKLALKYHPDKNPDNPEAADKFKEINNAHAILTDATKRNIYD, the abundance fitness was -0.567 ± 0.13.

Take LYHVLGLDKNATSDDSKKSYRKLALKYHPDKNPDNPEAADKFKEINNAHAILTDATKRNIYD: the abundance fitness is -0.435 ± 0.08.

Regarding LYHVLGLDKNATSDDLKKSYRKLALKYHPDKNPDNPEAADKFKEINNAHAILTDATKRNIYD, the abundance fitness was -0.285 ± 0.065.

As for LYHVLGLDKNATSDDPKKSYRKLALKYHPDKNPDNPEAADKFKEINNAHAILTDATKRNIYD, the abundance fitness was -0.587 ± 0.095.

For the variant LYHVLGLDKNATSDDCKKSYRKLALKYHPDKNPDNPEAADKFKEINNAHAILTDATKRNIYD, the abundance fitness is -0.44 ± 0.12.

LYHVLGLDKNATSDDRKKSYRKLALKYHPDKNPDNPEAADKFKEINNAHAILTDATKRNIYD: the abundance fitness is -0.586 ± 0.058.

On to LYHVLGLDKNATSDDAKKSYRKLALKYHPDKNPDNPEAADKFKEINNAHAILTDATKRNIYD, for which the abundance fitness is -0.32 ± 0.089.

With LYHVLGLDKNATSDDKKKSYRKLALKYHPDKNPDNPEAADKFKEINNAHAILTDATKRNIYD, the abundance fitness was -0.45 ± 0.098.

Consider LYHVLGLDKNATSDDWKKSYRKLALKYHPDKNPDNPEAADKFKEINNAHAILTDATKRNIYD, for which the abundance fitness is -0.998 ± 0.094.

For LYHVLGLDKNATSDDVKKSYRKLALKYHPDKNPDNPEAADKFKEINNAHAILTDATKRNIYD, the abundance fitness was -0.238 ± 0.072.

For the variant LYHVLGLDKNATSDDIKKGYRKLALKYHPDKNPDNPEAADKFKEINNAHAILTDATKRNIYD, the abundance fitness was -0.3 ± 0.065.

With LYHVLGLDKNATSDDIKKAYRKLALKYHPDKNPDNPEAADKFKEINNAHAILTDATKRNIYD, the abundance fitness came out at 0.02 ± 0.078.

Regarding LYHVLGLDKNATSDDIKKIYRKLALKYHPDKNPDNPEAADKFKEINNAHAILTDATKRNIYD, the abundance fitness was -0.762 ± 0.4.

In the case of LYHVLGLDKNATSDDIKKDYRKLALKYHPDKNPDNPEAADKFKEINNAHAILTDATKRNIYD, the abundance fitness was -0.485 ± 0.19.

As for LYHVLGLDKNATSDDIKKPYRKLALKYHPDKNPDNPEAADKFKEINNAHAILTDATKRNIYD, the abundance fitness was -0.516 ± 0.052.

Regarding LYHVLGLDKNATSDDIKKEYRKLALKYHPDKNPDNPEAADKFKEINNAHAILTDATKRNIYD, the abundance fitness was -0.091 ± 0.088.

In the case of LYHVLGLDKNATSDDIKKFYRKLALKYHPDKNPDNPEAADKFKEINNAHAILTDATKRNIYD, the abundance fitness is -0.88 ± 0.16.

As to LYHVLGLDKNATSDDIKKHYRKLALKYHPDKNPDNPEAADKFKEINNAHAILTDATKRNIYD, the abundance fitness was -0.333 ± 0.27.

On to LYHVLGLDKNATSDDIKKKYRKLALKYHPDKNPDNPEAADKFKEINNAHAILTDATKRNIYD, for which the abundance fitness is -0.391 ± 0.11.

Regarding LYHVLGLDKNATSDDIKKQYRKLALKYHPDKNPDNPEAADKFKEINNAHAILTDATKRNIYD, the abundance fitness was 0.042 ± 0.12.

Take LYHVLGLDKNATSDDIKKCYRKLALKYHPDKNPDNPEAADKFKEINNAHAILTDATKRNIYD: the abundance fitness is -0.088 ± 0.12.
